The values that follow come from paper PMC2736913.

For this assay, the target named is Protein encoded by the control plasmid pGBKT7-53. Nature of the assay: two-hybrid.

In the case of “Protein encoded by the control plasmid pGADT7-T (domain or fragment)”, the α-gal activity, fold over baseline (fold over baseline) was over 35000.
